{
  "source": "paper PMC3206007",
  "about": "“Crystal Structure of the Complex mAb 17.2 and the C-Terminal Region of Trypanosoma cruzi P2β Protein: Implications in Cross-Reactivity” (PLoS Neglected Tropical Diseases, 2011)",
  "binders": {"B1": {"name": "murine monoclonal antibody 17.2 (antibody, V domains shown)", "VH": "EVQLEESGGRLVQPKGSLKLSCAASGFSFNTNAMNWVRQAPGKGLEWVARIRSKINNYSTYYADSVKDRFTISRDDSQSMLYLQMNNLKTEDTAMYYCVRGTTYWGQGTLVTVSA", "VL": "not shown", "notes": "variable and CH1 domains as the heavy chain of m1 (PDB 3SGE, 3SGD); the rest is the mouse IgG1 constant region, not in the entries; as the light chain of m1 (kappa; PDB 3SGE, 3SGD); Whole IgG1, kappa; also called mAb 17.2; source: purified from ascitic fluid (40% ammonium sulphate, DEAE-Sephacel)"}},
  "target": "T1, human β1 adrenergic receptor (Homo sapiens, UniProt P08588)",
  "T1 construct": "also called β1-AR; ß1-AR; source: HEK cells, stably transfected (HEK-β1), on cells",
  "T1 sequence (P08588 whole entry)": "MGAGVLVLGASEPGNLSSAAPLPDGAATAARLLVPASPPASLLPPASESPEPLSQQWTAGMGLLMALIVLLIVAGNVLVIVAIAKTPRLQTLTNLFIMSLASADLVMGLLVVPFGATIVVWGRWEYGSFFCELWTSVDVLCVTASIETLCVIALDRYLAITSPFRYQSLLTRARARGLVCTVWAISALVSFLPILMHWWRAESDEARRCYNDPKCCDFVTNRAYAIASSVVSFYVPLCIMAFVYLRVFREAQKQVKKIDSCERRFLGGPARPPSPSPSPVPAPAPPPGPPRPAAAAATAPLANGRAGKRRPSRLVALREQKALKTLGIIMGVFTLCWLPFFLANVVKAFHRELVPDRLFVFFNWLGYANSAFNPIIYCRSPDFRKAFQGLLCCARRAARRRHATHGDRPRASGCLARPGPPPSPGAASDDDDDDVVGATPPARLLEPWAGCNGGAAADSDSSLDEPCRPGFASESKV",
  "assay": "flow cytometry on cells; HEK and HEK-β1 cells incubated with mAb 17.2 (500 nM) 1 h at room temperature in supplemented DMEM; Cy3-conjugated goat anti-mouse IgG; propidium iodide to exclude dead cells",
  "settings": "one partner purified",
  "data": [
    {"binder": "B1", "values": [
      {"measurement": "binding result", "result": "binds"}
    ]}
  ]
}
